Experimental findings from KR20180079232A (dated 2018) are described below.

The test concerns the target T1, L1CAM (L1 cell adhesion molecule, CD171), human (human, UniProt P32004 20-1257).
T1 construct: whole, on cells; The target sat on L1CAM-expressing cells (SCK-L1, Choi-CK, TFK-1); For the western blots it was the membrane protein fraction of those cells after SDS-PAGE; also called 막 L1CAM; membrane L1CAM
Nature of the test: confocal microscopy of L1CAM-expressing cells treated with Ab417 (10 ㎍/mL); surface-bound antibody detected with anti-human IgG.

T1 sequence (P32004 20-1257): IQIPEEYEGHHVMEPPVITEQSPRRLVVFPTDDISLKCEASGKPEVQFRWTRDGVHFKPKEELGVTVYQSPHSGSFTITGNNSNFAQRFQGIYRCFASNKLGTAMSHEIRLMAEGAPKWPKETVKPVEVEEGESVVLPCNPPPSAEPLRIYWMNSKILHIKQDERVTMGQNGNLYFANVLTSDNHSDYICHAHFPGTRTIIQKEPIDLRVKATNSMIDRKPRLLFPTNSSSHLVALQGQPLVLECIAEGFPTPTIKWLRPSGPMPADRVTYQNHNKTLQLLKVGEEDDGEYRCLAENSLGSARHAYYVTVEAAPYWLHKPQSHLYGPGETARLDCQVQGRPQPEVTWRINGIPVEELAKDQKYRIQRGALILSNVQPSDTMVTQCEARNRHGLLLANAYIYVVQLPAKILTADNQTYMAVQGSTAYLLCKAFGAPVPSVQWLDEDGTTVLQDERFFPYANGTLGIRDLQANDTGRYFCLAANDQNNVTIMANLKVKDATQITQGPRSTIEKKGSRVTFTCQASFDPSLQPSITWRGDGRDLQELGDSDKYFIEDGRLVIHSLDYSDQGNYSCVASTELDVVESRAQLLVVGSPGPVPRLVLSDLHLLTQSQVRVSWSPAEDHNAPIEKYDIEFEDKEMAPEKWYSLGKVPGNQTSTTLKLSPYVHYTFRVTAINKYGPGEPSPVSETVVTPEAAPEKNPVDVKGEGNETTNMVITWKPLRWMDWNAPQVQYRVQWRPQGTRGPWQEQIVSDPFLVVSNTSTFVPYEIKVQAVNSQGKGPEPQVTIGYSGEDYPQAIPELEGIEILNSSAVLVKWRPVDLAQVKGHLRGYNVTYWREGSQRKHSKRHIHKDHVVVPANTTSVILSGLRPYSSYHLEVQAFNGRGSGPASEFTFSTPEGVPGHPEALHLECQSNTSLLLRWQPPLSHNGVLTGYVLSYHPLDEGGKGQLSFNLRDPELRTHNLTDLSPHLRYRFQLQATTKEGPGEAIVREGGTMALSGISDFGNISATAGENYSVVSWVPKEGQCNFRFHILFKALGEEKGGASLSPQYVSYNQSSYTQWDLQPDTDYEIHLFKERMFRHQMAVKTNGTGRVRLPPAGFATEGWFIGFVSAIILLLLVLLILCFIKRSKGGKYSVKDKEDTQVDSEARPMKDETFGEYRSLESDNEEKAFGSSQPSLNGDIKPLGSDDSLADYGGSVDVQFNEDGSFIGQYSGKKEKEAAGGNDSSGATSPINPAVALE

B1: Ab417 항체 (anti-L1CAM antibody Ab417) (antibody, V domains shown)
VH: EVQLVESGGGVVQPGRSLRLSCAASGFTFSRFGMHWVRQAPGKGLEWVAFISNDGSNKYYADSVKGRFTISRDNSKNTLYLQMNSLRPEDTAVYYCARGRAYGSGSLFDPWGQGTLVTVSS
VL: DIQLTQSPSSLSASVGDRVTITCRASRTISIYVNWYRQRPGKAPESLIYAASNLHSGVPSRFSGSGSGTDFTLTISSLQPEDFATYYCQQSIGRGVVTFGQGTKLEIK
notes: It is a whole antibody made in CHO-DG44 cell line #9-20 and purified on protein A. It was detected with anti-human IgG (H+L) and anti-human IgG (Fc-specific)
With B1, the binding result is “binds”.
